Source: publication PMC9114768 (2022)

B1: monoclonal antibody 127 (antibody, V domains shown)
VH: QVQLQQPGAELVKPGASVKLSCKASGYTFTSYWMHWVKQRPGQGLEWIGEINPSNGRKNYNEKFKSKATLTVDKSSSTAYMQLSSLTSEDSAVYYCVRGDYGSSYYWYFDVWGAGTTVTVSS
VL: not shown
B2: monoclonal antibody 150 (antibody, V domains shown)
VH: B1 VH
VL: not shown

Key:
[1] = target: His-tagged SARS-CoV-2 S1-RBD recombinant protein, wild type (SARS-CoV-2, UniProt P0DTC2 319-541); experiment: SPR
[2] = target: C-terminal Fc-tagged human ACE2 recombinant protein (human, UniProt Q9BYF1); experiment: SPR
C-terminal Fc-tagged human ACE2 recombinant protein, sequence (Q9BYF1 18-740): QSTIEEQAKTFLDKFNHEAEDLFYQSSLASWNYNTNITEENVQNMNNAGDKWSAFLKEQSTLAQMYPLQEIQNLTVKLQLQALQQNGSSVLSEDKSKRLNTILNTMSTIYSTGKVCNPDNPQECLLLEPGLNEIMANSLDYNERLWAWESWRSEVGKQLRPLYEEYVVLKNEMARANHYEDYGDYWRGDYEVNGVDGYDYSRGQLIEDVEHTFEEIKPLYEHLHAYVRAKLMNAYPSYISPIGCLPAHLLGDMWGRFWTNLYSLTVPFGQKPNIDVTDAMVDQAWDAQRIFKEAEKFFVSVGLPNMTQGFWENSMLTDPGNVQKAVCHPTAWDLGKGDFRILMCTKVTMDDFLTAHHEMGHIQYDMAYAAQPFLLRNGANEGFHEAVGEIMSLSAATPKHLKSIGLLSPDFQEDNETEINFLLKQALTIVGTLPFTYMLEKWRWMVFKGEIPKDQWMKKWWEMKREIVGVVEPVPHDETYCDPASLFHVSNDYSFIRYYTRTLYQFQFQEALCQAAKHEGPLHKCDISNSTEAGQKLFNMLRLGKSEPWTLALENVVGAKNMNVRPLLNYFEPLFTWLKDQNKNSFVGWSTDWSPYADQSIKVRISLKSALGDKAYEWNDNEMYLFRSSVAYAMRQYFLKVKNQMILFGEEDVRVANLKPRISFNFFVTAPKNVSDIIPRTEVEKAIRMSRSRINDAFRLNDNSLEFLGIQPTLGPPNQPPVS

Row | Binder | koff [1] | koff [2]
1 | B1 | 0.00013 s⁻¹ | 0.000442 s⁻¹
2 | B2 | 0.000441 s⁻¹ | 0.00039 s⁻¹
